The values below come from patent US20050130287A1, “Purifying process of soluble proteins of the l.obliqua bristles through prothrombin activation: process for a partial determination of the amino acids sequence of the prothrombin activator; process for determining the prothrombin activation of fraction II, n-terminal and internal fragments sequences” (priority 2002, published 2005).

The subject of one data set is T1, Abz-YQTFFNPRTFGSQ-EDDnp.
T1 sequence: YQTFFNPRTFGSQ

The next data set concerns the target prothrombin (UniProt P00734).
Data set [1] concerns the target purified human fibrinogen (UniProt P02671).

Take “Lonomia obliqua Prothrombin Activator Protease (Lopap)”: in the data set with Abz-YQTFFNPRTFGSQ-EDDnp, the Kcat entry is given as “Kcat 5,32 sec^-1”, the Kcat/Kmapp result is recorded as “Kcat/K mapp 1,2×106 M^-1 sec -1” and the Kmapp result is on record as “Kmapp 4,5 µM”. In the data set with Factor X, the “Factor X activation, hydrolysis of S-2765” value was “Lopap did not present capacity of activating factor X” and the “Factor X activation, hydrolysis of S-2765 (p-nitroaniline formed)” value is listed as “When Factor X (30 nM) was added to the experiment, the substrate hydrolysis obtained was of 2,6 µM”. Besides, in the data set with prothrombin, the Coagulation Time (S) of fibrinogen, with Ca2+ stood at 60 s and the Coagulation Time (S) of fibrinogen, without Ca2+ is 240 s. Besides, the “Coagulation Time (S) of fibrinogen, without Factor II” value in data set [1] is listed as “Lopap + / F II - / FG +: >1200”.
In turn, Factor Xa gave a Coagulation Time (S) of fibrinogen, with Ca2+ in the data set with prothrombin of 120 s.
